B1: SNAP-gp17 (SNAP-tagged full-length wild-type phage T4 large terminase gp17, labelled with SNAP-Surface 549) (enzyme, bacteriophage T4, UniProt P17312 1-610, looked up)
chain: MEQPINVLNDFHPLNEAGKILIKHPSLAERKDEDGIHWIKSQWDGKWYPEKFSDYLRLHKIVKIPNNSDKPELFQTYKDKNNKRSRYMGLPNLKRANIKTQWTREMVEEWKKCRDDIVYFAETYCAITHIDYGVIKVQLRDYQRDMLKIMSSKRMTVCNLSRQLGKTTVVAIFLAHFVCFNKDKAVGILAHKGSMSAEVLDRTKQAIELLPDFLQPGIVEWNKGSIELDNGSSIGAYASSPDAVRGNSFAMIYIDECAFIPNFHDSWLAIQPVISSGRRSKIIITTTPNGLNHFYDIWTAAVEGKSGFEPYTAIWNSVKERLYNDEDIFDDGWQWSIQTINGSSLAQFRQEHTAAFEGTSGTLISGMKLAVMDFIEVTPDDHGFHQFKKPEPDRKYIATLDCSEGRGQDYHALHIIDVTDDVWEQVGVLHSNTISHLILPDIVMRYLVEYNECPVYIELNSTGVSVAKSLYMDLEYEGVICDSYTDLGMKQTKRTKAVGCSTLKDLIEKDKLIIHHRATIQEFRTFSEKGVSWAAEEGYHDDLVMSLVIFGWLSTQSKFIDYADKDDMRLASEVFSKELQDMSDDYAPVIFVDSVHSAEYVPVSHGMSMV
modifications: SNAP-Surface 549 fluorophore (called Cy3 in the paper) on the SNAP-tag
notes: Large terminase gp17 of bacteriophage T4, full-length wild type, amplified from pET15-gp17 and inserted into pET-SNAP; Order on the chain as printed: SNAP-tag, hexa-histidine tag, full-length gp17; Added as a monomer; it assembles into the motor on the T4 head; also called WT gp17; Cy3-labeled gp17; not shown: SNAP-tag, N-terminal, kept
B2: SNAP-Q163A-gp17 (ATPase-defective Walker A P-loop mutant of SNAP-tagged gp17, labelled with SNAP-Surface 549) (enzyme, bacteriophage T4, UniProt P17312 1-610, looked up)
chain: MEQPINVLNDFHPLNEAGKILIKHPSLAERKDEDGIHWIKSQWDGKWYPEKFSDYLRLHKIVKIPNNSDKPELFQTYKDKNNKRSRYMGLPNLKRANIKTQWTREMVEEWKKCRDDIVYFAETYCAITHIDYGVIKVQLRDYQRDMLKIMSSKRMTVCNLSRALGKTTVVAIFLAHFVCFNKDKAVGILAHKGSMSAEVLDRTKQAIELLPDFLQPGIVEWNKGSIELDNGSSIGAYASSPDAVRGNSFAMIYIDECAFIPNFHDSWLAIQPVISSGRRSKIIITTTPNGLNHFYDIWTAAVEGKSGFEPYTAIWNSVKERLYNDEDIFDDGWQWSIQTINGSSLAQFRQEHTAAFEGTSGTLISGMKLAVMDFIEVTPDDHGFHQFKKPEPDRKYIATLDCSEGRGQDYHALHIIDVTDDVWEQVGVLHSNTISHLILPDIVMRYLVEYNECPVYIELNSTGVSVAKSLYMDLEYEGVICDSYTDLGMKQTKRTKAVGCSTLKDLIEKDKLIIHHRATIQEFRTFSEKGVSWAAEEGYHDDLVMSLVIFGWLSTQSKFIDYADKDDMRLASEVFSKELQDMSDDYAPVIFVDSVHSAEYVPVSHGMSMV
modifications: SNAP-Surface 549 fluorophore (called Cy3 in the paper) on the SNAP-tag
notes: Large terminase gp17 of bacteriophage T4, full length, with Q163A; made by overlap PCR with the SNAP-gp17 construct as template; also called Q163A mutant; not shown: SNAP-tag, N-terminal, kept

Experiments:
[1] = target: the molecule itself; assay: single-molecule TIRF fluorescence (Cy3 photobleaching step counting); motors assembled from T4 heads, Cy3-labelled SNAP-gp17 monomer (2-5 uM), 1 mM ATP-gammaS and 120-bp DNA; heads held on a PEG surface by anti-T4 polyclonal antibody; only spots with packaged Cy5-DNA counted; binomial fit of step counts (486 trajectories); room temperature
[2] = target: the molecule itself; assay: not stated; assembly of the Q163A mutant into a pentamer; shown only in Supplementary Fig. 3b-g
[3] = target: T1, WT-gp17 (His-tagged, unlabeled wild-type phage T4 gp17) (bacteriophage T4, UniProt P17312 1-610); assay: single-molecule TIRF fluorescence (Cy3 photobleaching step counting); only the inactive SNAP-Q163A-gp17 labelled with Cy3, mixed with unlabeled WT gp17 and assembled on T4 heads; heads held on a PEG surface by anti-T4 antibody; Cy5-DNA and ATP flowed in, DNase I after ~10 min; Cy3 and Cy5 spots colocalised (2405 trajectories); room temperature; details: both partners purified
T1 construct: Large terminase gp17 of bacteriophage T4; also called unlabeled WT gp17; source: E. coli BL21 (DE3) pLysS or codon-plus BL21 (DE3) RIPL, purified (HisTrap, Superdex-200 SEC)

Binder	stoichiometry N [1]	stoichiometry N [2]	binding result [3]
B1	5	–	–
B2	–	5	binds
